B1: CPEB3 Ribozyme (parent)
chain: UAACAGGGGGCCACAGCAGAAGCGUUCACGUCGCAGCCCCUGUCAGAUUCUGGUGAAUCUGCGAAUUCUGCUGUAUAUCUC

Variants of: B1
Assay: self-cleavage, relative activity (ratio to wild type); higher = more cleavage; in vitro, sequencing
In short: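 Relative activity compares each variant's cleaved/total read fraction with that of the unmutated ribozyme. To get these fractions, barcoded CPEB3 ribozyme libraries from rounds of error-prone PCR were transcribed with T7 RNA polymerase for 5 hours at 37°C and then given 15 min of DNase I treatment before EDTA was added. The RNAs were reverse transcribed with template switching and sequenced on Illumina, and DNA sequencing linked barcodes to variants. A minimum of 5 reads applied, and three batches were averaged.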
Work on G16C A77G yielded a self-cleavage of 0.21. Variant C17G A18G has a self-cleavage of 0.11. C17G A18U showed a self-cleavage of 0.4. Variant G16C U74C has a self-cleavage of 0.25. G16C U74A showed a self-cleavage of 0.38. G16U C81U showed a self-cleavage of 0.35. For C17A A21G, the self-cleavage was 0.25. Variant A18C U26C has a self-cleavage of 0.44. Variant C17U A77G has a self-cleavage of 0.69. With C17U U41A the self-cleavage was 0.24. With C17U U41G the self-cleavage was 0.37. For C17U U41C, the self-cleavage was 0.32. C17G U31C gave a self-cleavage of 0.28. For A18C C29U, the self-cleavage was 0.31. With A18G A45U the self-cleavage was 0.35. Variant A18G A45C has a self-cleavage of 0.3. A18G A45G gave a self-cleavage of 0.46. For G16U A45G, the self-cleavage was 0.21. Work on G16U A45U yielded a self-cleavage of 0.21. Variant C17G U51C has a self-cleavage of 0.6. A18C C71A gave a self-cleavage of 0.09. Work on G16U A47G yielded a self-cleavage of 0.32. G16U A47U gave a self-cleavage of 0.16. In the case of A18C U74C, the self-cleavage is reported as 0.58. A18C U74G showed a self-cleavage of 0.31. C17A U49C showed a self-cleavage of 0.19. With A18C the self-cleavage was 0.41. A18G gave a self-cleavage of 0.71. In the case of A18G C27G, the self-cleavage is reported as 0.41. Variant A18G C27U has a self-cleavage of 0.42. For C17G A28G, the self-cleavage was 0.16. C17G A28C gave a self-cleavage of 0.21. In the case of G16U U25A, the self-cleavage is reported as 0.2. Variant C17G C34G has a self-cleavage of 0.36. Variant C17A A64G has a self-cleavage of 0.24. In the case of A18C U66C, the self-cleavage is reported as 0.21. C17U G55A showed a self-cleavage of 0.38. Variant G16U U67C has a self-cleavage of 0.09. In the case of G16U U67A, the self-cleavage is reported as 0.19. G16U gave a self-cleavage of 0.42. In the case of G16C, the self-cleavage is reported as 0.35. Variant C17A A47U has a self-cleavage of 0.44. For C17A A47G, the self-cleavage was 0.28. Variant C17A U78C has a self-cleavage of 0.21. With C17G A47G the self-cleavage was 0.28. In the case of C17U A56G, the self-cleavage is reported as 0.47. C17U A56U gave a self-cleavage of 0.22. Work on C17U A20G yielded a self-cleavage of 0.45. A18C A47G showed a self-cleavage of 0.26. Work on G16C U72A yielded a self-cleavage of 0.3. Work on C17U C71A yielded a self-cleavage of 0.15. Variant C17A U31A has a self-cleavage of 0.15. Work on A18C C39A yielded a self-cleavage of 0.41. Variant C17G U80A has a self-cleavage of 0.37. Variant C17U C38A has a self-cleavage of 0.39. Work on C17G C32U yielded a self-cleavage of 0.27. For C17G C32G, the self-cleavage was 0.23. Work on A18G A65U yielded a self-cleavage of 0.38. For A18G A65G, the self-cleavage was 0.34. In the case of A18C C79A, the self-cleavage is reported as 0.9. With C17A A20G the self-cleavage was 0.3. C17U G36A gave a self-cleavage of 0.17. With G16U G33A the self-cleavage was 0.32. Work on G16U G33C yielded a self-cleavage of 0.09. Variant C17G U41G has a self-cleavage of 0.08. Work on C17G U41A yielded a self-cleavage of 0.25. With C17A U67C the self-cleavage was 0.44. A18C A20G gave a self-cleavage of 0.44. A18C A20U showed a self-cleavage of 0.15. With C17U U60A the self-cleavage was 0.23. With C17U U60C the self-cleavage was 0.21. For A18G A75G, the self-cleavage was 0.57. For A18G A75U, the self-cleavage was 0.82. A18G A75C showed a self-cleavage of 0.91. Variant G16U U60G has a self-cleavage of 0.21. Variant A18C U31C has a self-cleavage of 0.28. Variant A18C U31A has a self-cleavage of 0.19. A18C U41G showed a self-cleavage of 0.53. Work on A18C U41A yielded a self-cleavage of 0.32. A18C U41C gave a self-cleavage of 0.34. A18C G42A showed a self-cleavage of 0.17. In the case of G16U U80C, the self-cleavage is reported as 0.7. G16U U80A gave a self-cleavage of 0.52.

Source: the RNAGym collection of RNA variant scans (doi:10.1093/nar/gkz1192)
